In patent US20250340631A1 (HARBOUR BIOMED SHANGHAI, published 2025):
Numbering of substitutions follows the chain as printed. Names and notes keep the numbering of the source.

B1: PR000400 (antibody, human IgG1, kappa, V domains shown)
VH: QVQLQQPGAELVRPGASVKLSCKASGYTFTSYWINWVKQRPGQGLEWIGNIYPSDSYTNYNQKFKDKATLTVDKSSSTAYMQLSSPTSEDSAVYYCTRSWRGNSFDYWGQGTTLTVSS
VL: DIVMTQSPSSLTVTAGEKVTMSCKSSQSLLNSGNQKNYLTWYQQKPGQPPKLLIYWASTRESGVPDRFTGSGSGTDFTLTISSVQAEDLAVYYCQNDYSYPFTFGSGTKLEIKR
notes: also called IMAB362 analogue
B2: PR007245 (antibody, human IgG1, V domains shown)
VH: EVQLVESGGGLVQPGGSLRLSCAASGFTFSSYWMHWVRQVPGKGLVWVSRISSDASRTIYADSVKGRFTISRDNAKNTLYLQMNSLRAEDTAVYYCARGEDHDILTGYPIRGQGTTVTVSS
notes: HCDR2 PTM-removal mutant of PR004533; HCAb, human IgG1 Fc; also called 4533_M6E6
B3: PR007244 (antibody, human IgG1, V domains shown)
VH: B2 VH with S52D, D54R, A55G
notes: HCDR2 PTM-removal mutant of PR004533; HCAb, human IgG1 Fc; also called 4533_M4H6
B4: PR007243 (antibody, human IgG1, V domains shown)
VH: B2 VH with D54A, A55G
notes: HCDR2 PTM-removal mutant of PR004533; HCAb, human IgG1 Fc; also called 4533_M3D9
B5: PR007246 (antibody, human IgG1, V domains shown)
VH: B2 VH with D54T, A55G
notes: HCDR2 PTM-removal mutant of PR004533; HCAb, human IgG1 Fc; also called 4533_M3F10
B6: PR007242 (antibody, human IgG1, V domains shown)
VH: B2 VH with S52N, S53F, A55S
notes: HCDR2 PTM-removal mutant of PR004533; HCAb, human IgG1 Fc; also called 4533_M10E1
B7: PR007248 (antibody, human IgG1, V domains shown)
VH: B2 VH with S52N, S53H, A55S
notes: HCDR2 PTM-removal mutant of PR004533; HCAb, human IgG1 Fc; also called 4533_M10E7
B8: PR002199 (bispecific antibody)
chain 1: not shown
chain 2: EVQLVESGGGLVQPGRSLRLSCAASGFTFDDYAMHWVRQAPGKGLEWVSGISWNSGSIGYADSVKGRFTISRDNAKNSLYLQMNSLRAEDTALYYCAKDSRGYGDYRLGGAYWGQGTLVTVSSASTKGPSVFPLAPSSKSTSGGTAALGCLVKDYFPEPVTVSWNSGALTSGVHTFPAVLQSSGLYSLSSVVTVPSSSLGTQTYICNVNHKPSNTKVDKKVEPKSCDKTHTCPPCPAPEAAGGPSVFLFPPKPKDTLMISRTPEVTCVVVDVSHEDPEVKFNWYVDGVEVHNAKTKPREEQYNSTYRVVSVLTVLHQDWLNGKEYKCKVSNKALGAPIEKTISKAKGQPREPQVYTLPPCREEMTKNQVSLWCLVKGFYPSDIAVEWESNGQPENNYKTTPPVLDSDGSFFLYSKLTVDKSRWQQGNVFSCSVMHEALHNHYTQKSLSLSPGK
chain 3: EVQLLESGGGLVQPGGSLRLSCAASGFTVSSYGMSWVRQAPGKGPEWVSGIRGSDGSTYYADSVKGRFTISRDNSKNTLYLQMNSLRAEDTAVYYCAKQGENDGPFDHRGQGTLVTVSSGGGGSEVQLLESGGGLVQPGGSLRLSCAASGFTVSSYGMSWVRQAPGKGPEWVSGIRGSDGSTYYADSVKGRFTISRDNSKNTLYLQMNSLRAEDTAVYYCAKQGENDGPFDHRGQGTLVTVSSASEPKSSDKTHTCPPCPAPEAAGGPSVFLFPPKPKDTLMISRTPEVTCVVVDVSHEDPEVKFNWYVDGVEVHNAKTKPREEQYNSTYRVVSVLTVLHQDWLNGKEYKCKVSNKALGAPIEKTISKAKGQPREPQVCTLPPSREEMTKNQVSLSCAVKGFYPSDIAVEWESNGQPENNYKTTPPVLDSDGSFFLVSKLTVDKSRWQQGNVFSCSVMHEALHNHYTQKSLSLSPGK
B9: PR004227 (antibody, V domains shown)
VH: EVQLVESGGGLVQPGGSLRLSCAASGFTFSSYWMHWVRQAPGKGLEWVSYINNDGSSTRYADSVKGRFTISRDNAKNTLYLQMNSLRAEDTAVYYCTEAPPYGNYERDYWGQGTLVTVSS
notes: anti-CLDN18.2 HCAb: VH fused to human IgG1 Fc, no light chain; also called R1029P(CG20)001B02
B10: PR004533 (antibody, V domains shown)
VH: B2 VH with S52N, A55G
notes: anti-CLDN18.2 HCAb: VH fused to human IgG1 Fc, no light chain; also called R1029P021E10
B11: PR004949 (antibody, V domains shown)
VH: B2 VH with S31A, K43R, S52N, A55G, Y95L, I104M, I110V, T116M
notes: anti-CLDN18.2 HCAb: VH fused to human IgG1 Fc, no light chain; also called R1029P021C02
B12: PR004950 (antibody, V domains shown)
VH: B2 VH with S31A, S52N, A55G, T116M
notes: anti-CLDN18.2 HCAb: VH fused to human IgG1 Fc, no light chain; also called R1029P021F07
B13: PR004536 (antibody, V domains shown)
VH: EVQLVESGGGLVQPGGSLRLSCAASGFTFSSYWMYWVRQVPGKGLVWVSHINSDGSTTQYADSVKGRFTISRDNAKNMLYLQMNSLRAEDTAVYYCARDFPVLGGSHFDFQHWGQGTLVTVSS
notes: anti-CLDN18.2 HCAb: VH fused to human IgG1 Fc, no light chain; also called R1029P028A11
B14: PR007247 (antibody, human IgG1, V domains shown)
VH: B13 VH with S53P, D54L
notes: HCDR2 PTM-removal mutant of PR004536; HCAb, human IgG1 Fc; also called 4536_M8A6
B15: PR004953 (antibody, V domains shown)
VH: EVQLVESGGGVVQPGRSLRLSCAASGFTFSSYGMHWVRQAPGKGLEWVAVIGYDGRNKYYADSVKGRFTISRDNSKNTLFLQMDNLRAEDTALYYCARHFPSLPGTTDTFDIRGPGTMVTVSS
notes: anti-CLDN18.2 HCAb: VH fused to human IgG1 Fc, no light chain; also called R1029P024B07
B16: PR004540 (antibody, V domains shown)
VH: B2 VH with S31I, W47L, A55G, S56N, R57Y, I59S, Y95L, I104M, I110V
notes: anti-CLDN18.2 HCAb: VH fused to human IgG1 Fc, no light chain; also called R1029P037B07

Biological target: T1, human CLDN18.2 (human)
T1 construct: the HEK293 line was made with a GenScript plasmid; also called hCLDN18.2
Assay: competition FACS on HEK293/hCLDN18.2 cells; competitor 200 nM biotinylated PR004549
Method: (§1) This example is to study the binding of anti-human CLDN18.2 bispecific antibodies to the epitope region of a human CLDN18.2 antigen. Competitive binding experiments were performed at the cellular level using human CLDN18.2-overexpressing HEK293/hCLDN18.2 cells. […] The mixture was well mixed and incubated at 4° C. for 30 min. 25 μL of the corresponding serially diluted non-biotinylated anti-human CLDN18.2 antibody was added. The mixture was well mixed and incubated at 4° C. for 1 h. The cells in each well were washed twice with 200 μL of pre-cooled FACS buffer (2% BSA in DPBS) and centrifuged at 500 g at 4° C. for 5 min, and then the supernatant was discarded. A fluorescent secondary antibody (Jackson ImmunoResearch, 016-540-084, 1:500) was added. The mixture was incubated at 4° C. in the absence of light for 1 h. The cells in each well were washed twice with 200 μL of pre-cooled FACS buffer (2% BSA in DPBS) and centrifuged at 500 g at 4° C. for 5 min, and then the supernatant was discarded. Finally, the cells in each well were resuspended in 200 μL of pre-cooled FACS buffer, and the fluorescence signal values were read using a ACEA_NovoCyte.

Binder	IC50 [nM]	Maximum inhibition rate (%)
B1	25.2	52.3

Biological target: T1, human CLDN18.2
Assay: FACS on NUGC4_D8 cells
Method: (§2) The binding affinity of an antibody was detected by FACS using human CLDN18.1-expressing HEK293 cells, human CLDN18.2-expressing HEK293 cells, NUGC4_D8 cells and SNU601 cells endogenously expressing human CLDN18.2 (Cobioer, CBP60507). […] The cell density was adjusted to 10⁶ cells/mL, and 50 μL of the cell suspension was added to each well of a 96-well plate. Antibodies were diluted to different concentrations with FACS buffer, and 50 μL of the antibody dilution was added to each well of the 96-well plate. After 2 h of incubation at 4° C., the plate was washed twice with FACS buffer. […] After 1 h of incubation at 4° C., the plate was washed twice with FACS buffer. The cells were resuspended in fixative solution, and then the fluorescence of the cells was monitored using an FACS instrument (ACEA NovoCyte).

Binder	EC50 [nM]	Emax (MFI)
B2	63.2	137000
B3	49.2	153000
B4	78.2	176000
B5	55.9	166000
B6	69.5	176000
B7	74.6	174000
B1	56.4	58400

Biological target: T2, Biotinylated human CD3E&D (human, UniProt P07766 23-126; P04234 22-105, biotin label)
T2 construct: also called CDD-H82W6
Assay: BLI (Octet), biotinylated CD3 on SA sensor, 1:1 global fit;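 further: antibodies applied as analyte in 2-fold serial dilutions, with a 180 s association phase followed by a 300 s dissociation phase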
Method: The binding kinetics between proteins and antibodies was analyzed by the Biolayer Interferometry (BLI) technique using an Octet Red 96e (Fortebio) system. Human CD3E (Acro, CDE-H5223), cynomolgus CD3E (Acro, CDE-C5226) and murine CD3E (Acro, CDE-M5256) were mixed with biotin (Thermo Scientific, A39257) in a molar ratio of 1:3. The mixture was incubated at 4° C. overnight, and then excess biotin was removed to obtain biotinylated CD3E. The rotation speed was set at 1000 rpm for the system. […] After being equilibrated in the buffer for 120 s, the SA sensor with captured CD3 was allowed to bind to 2-fold serially diluted antibodies. […] Finally, the SA sensor was immersed in a 10 mM glycine-hydrochloric acid solution at pH 1.5 for regeneration to elute the antibodies bound to the sensor. […] For the interactions of fast binding and fast dissociation, the “steady state” method was selected to fit the data to obtain KD(M) values.

T2 sequence (P07766 23-126, chain 1 of 2): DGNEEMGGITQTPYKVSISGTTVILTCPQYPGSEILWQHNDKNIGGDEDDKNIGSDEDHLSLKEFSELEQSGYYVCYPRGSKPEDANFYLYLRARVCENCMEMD
T2 sequence (P04234 22-105, chain 2 of 2): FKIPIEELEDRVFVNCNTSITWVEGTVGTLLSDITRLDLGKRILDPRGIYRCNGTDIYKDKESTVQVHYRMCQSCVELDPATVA

Binder	Kd [nM]	koff [s⁻¹]	kon [M⁻¹ s⁻¹]
B8	241	0.0518	215000

Biological target: T1, human CLDN18.2
Assay: FACS on SNU601 cells
Method: as §2

Binder	EC50 [nM]	Emax (MFI)
B9	28.5	14800
B10	11.9	11300
B11	12.8	18300
B12	14.6	13600
B13	52.7	15800

Biological target: T1, human CLDN18.2
Assay: FACS on HEK293/hCLDN18.2 cells
Method: as §2

Binder	EC50 [nM]	Emax (MFI)
B2	13	1.31e+06
B3	11.7	1.3e+06
B4	13.3	1.47e+06
B5	14.4	1.37e+06
B6	11.3	1.48e+06
B7	12.8	1.31e+06
B14	35.3	1.27e+06
B1	5.6	1.32e+06

Biological target: T1, human CLDN18.2
Assay: competition FACS on HEK293/hCLDN18.2 cells; competitor 10 nM biotinylated PR000400
Method: as §1

Binder	IC50 [nM]	Maximum inhibition rate (%)
B1	36.2	92.7

Biological target: T1, human CLDN18.2
Assay: FACS on NUGC4_D8 cells
Remark: another data set of the same source
Method: as §2

Binder	EC50 [nM]	Emax (MFI)
B10	25	183000
B11	21.8	265000
B12	16.1	206000
B1	17	101000
B15	12	219000

Biological target: T1, human CLDN18.2
Assay: competition FACS on HEK293/hCLDN18.2 cells; competitor 200 nM biotinylated PR004549
Remark: another data set of the same source
Method: (§3) This example is to study the binding of anti-human CLDN18.2 HCAb monoclonal antibodies to the epitope region of human CLDN18.2 antigen. Competitive binding experiments were performed at the cellular level using HEK293/hCLDN18.2 cells overexpressing human CLDN18.2. […] Then suspension of HEK293/hCLDN18.2 cells overexpressing human CLDN18.2 were adjusted to 3×10⁶ cells/mL, seeded 50 L/well. The cells were co-incubated at 4° C. for 2 h. The cells in each well were washed twice with 200 μL of pre-cooled FACS buffer (2% FBS in PBS) and centrifuged at 500 g at 4° C. for 5 min, and then the supernatant was discarded. […] The cells in each well were washed twice with 200 μL of pre-cooled FACS buffer (2% FBS in PBS) and centrifuged at 500 g at 4° C. for 5 min, and then the supernatant was discarded. Finally, the cells in each well were resuspended in 200 μL of pre-cooled FACS buffer, and the fluorescence signal values were read using a BD FACS CANTOII.

Binder	IC50 [nM]	Maximum inhibition rate (%)
B9	20.3	93.8
B10	23.2	93.7
B11	31	94.2
B12	19.9	94.3
B16	50	89.2
B13	74.1	90.1
B1	11.5	90.7
B15	13.8	93.2

Biological target: T1, human CLDN18.2
Assay: competition FACS on HEK293/hCLDN18.2 cells; competitor 10 nM biotinylated PR000400
Remark: another data set of the same source
Method: as §3

Binder	IC50 [nM]	Maximum inhibition rate (%)
B9	22.3	98.3
B10	25.5	98.6
B11	35.4	98.5
B12	23.5	98.5
B16	64.1	95.8
B13	103	98
B1	20.1	96.4
B15	16.7	98
